Measurements published in patent publication US20100098709A1 (AstraZeneca / MedImmune, published 2010).

Tests used:
[1] = molecular target: T1, FLAG HIS tagged soluble IL-6Ra (human, UniProt P08887 20-358, limits assumed); experiment: phage ELISA, antigen on anti-FLAG plate
T1 construct: the key was followed; also called HIS FLAG sIL-6R; FLAG-sIL-6R
T1 sequence: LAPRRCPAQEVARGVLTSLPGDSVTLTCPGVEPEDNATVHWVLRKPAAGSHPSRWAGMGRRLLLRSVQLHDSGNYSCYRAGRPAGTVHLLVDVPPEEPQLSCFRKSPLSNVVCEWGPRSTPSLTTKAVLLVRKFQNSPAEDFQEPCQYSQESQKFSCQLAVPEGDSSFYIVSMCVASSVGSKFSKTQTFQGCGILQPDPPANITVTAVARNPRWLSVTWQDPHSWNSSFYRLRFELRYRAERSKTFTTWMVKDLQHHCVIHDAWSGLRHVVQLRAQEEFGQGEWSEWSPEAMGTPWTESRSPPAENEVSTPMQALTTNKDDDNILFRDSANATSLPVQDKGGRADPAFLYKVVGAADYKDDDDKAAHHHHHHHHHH

[2] = molecular target: T2, HIS FLAG tagged human IL-6 (human, UniProt P05231 30-212); experiment: phage ELISA, antigen on anti-FLAG plate
T2 construct: also called HIS FLAG IL-6; FLAG-IL-6

[3] = molecular target: T3, FLAG HIS tagged Hyper IL-6; experiment: phage ELISA, antigen on anti-FLAG plate
T3 construct: also called HIS FLAG Hyper IL-6

[4] = molecular target: T4, Complex 2: IL-6/HIS FLAG sIL-6R (human, UniProt P05231 30-212; P08887 20-358, limits assumed); experiment: phage ELISA, antigen on anti-FLAG plate
T4 construct: Non-covalent complex made by pre-incubating the two proteins; Untagged IL-6 was bought; also called IL-6/sIL-6R complex consisting of untagged ligand and FLAG tagged receptor

[5] = molecular target: T5, Complex 1: HIS FLAG IL-6/sIL-6R (human, UniProt P05231 30-212; P08887 20-358, limits assumed); experiment: phage ELISA, antigen on anti-FLAG plate
T5 construct: Non-covalent complex made by pre-incubating the two proteins; The untagged sIL-6R was bought; also called IL-6/sIL-6R complex consisting of FLAG tagged ligand and untagged receptor

[6] = molecular target: T6, biotinylated anti-FLAG monoclonal antibody (Sigma F9291); experiment: phage ELISA, anti-FLAG treated plate alone
T6 construct: Control coat of the phage ELISA plates (streptavidin plate treated with the anti-FLAG antibody, then MPBS only); also called anti FLAG antibody treated plates alone

[7] = molecular target: T1, FLAG HIS tagged soluble IL-6Ra; experiment: phage ELISA
[8] = molecular target: T2, HIS FLAG tagged human IL-6; experiment: phage ELISA

B1: Antibody 5 scFv (scFv, V domains shown)
VH: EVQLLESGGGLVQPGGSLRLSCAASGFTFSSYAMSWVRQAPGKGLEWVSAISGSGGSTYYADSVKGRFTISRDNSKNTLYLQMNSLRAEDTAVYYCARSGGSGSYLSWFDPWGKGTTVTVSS
VL: QSVLTQPPSVSGAPGQRVTISCTGSSSNIGAGYDVHWYQQLPGTAPKLLIYGNSNRPSGVPDRFSGSKSGTSASLAITGLQAEDEADYYCQSYDSSLSGWVFGGGTKVTVLG
notes: also called Ab 5
Absorbance (450 nM) [1]: 0.061 | Absorbance (450 nM) [2]: 0.065 | Absorbance (450 nM) [3]: 0.833 | Absorbance (450 nM) [4]: 0.747 | Absorbance (450 nM) [5]: 0.331 | Absorbance (450 nM) [6]: 0.062 | binding result [7]: no binding | binding result [8]: no binding
